Molecular target: spike of variant B.1.351 v.1 on pseudovirus
Assay: cell-based or functional assay

Row | Substance | neutralization IC50 [µg/mL]
1 | CB6 (antibody) | > 10
2 | LY-CoV555 (antibody) | > 10

— patent US20240117011A1
